The assay has as its target CD44 variant carrying the epitope coded by exon v6 on human Langerhans cells and dendritic cells (human) (UniProt P16070).

In turn, VFF18 (antibody) showed a binding of cultivated LCs and cytokine-activated DCs to paracortical T-cell zones of lymph node frozen sections of less than 66 % inhibition.

For the origin of these results see patent US20020160010A1.
